Reference: article PMC12089306
Blank lines part the entries; values can stand above or below the substance they belong to.

Target: TEAD4 (UniProt Q15561)
Experiment: co-immunoprecipitation
Conditions: reference: wild type SP1

binding against the reference (sites S670): weaker
Substance: SP1 (from UniProt P08047) S670 single mutant

binding against the reference (sites T668): weaker
Substance: SP1 (from UniProt P08047) T668 single mutant

binding against the reference (sites T681): weaker
Substance: SP1 (from UniProt P08047) T681 single mutant
